Measured values from the DeepSol protein solubility set.

Assay: soluble on expression in E. coli; label from the status in PepcDB or PDB records

| Sequence | soluble on expression in E. coli |
| --- | --- |
| MAPRKKVNEMVIRKTANLTDKMRKERTVEEFEEVKTAQSKSYESDTSSAESLRQKRTAPSAIRTVQIQKEIVLPYDGNLVSVYEKSSNTRSLDTISEPGDLEEFKKKAEESKYVGPQIVPMKFVTTDVETPVKAIFVSDFDFCQAMHHPPQSSTQSKKVEFSKRFEVEQKFLEEMVADIEKLIVSSGRMDVELKVVKAREENDSPRAKISLVRKIHAEKVDDNLNNQAGLVGFILPDLEMKDHGIPLKITKNQQVPSGQKMFESFKRLFGY | not soluble |
| MAPRSILITGANRGIGLGLVKQFLKNEGIQLVIATCRNPSKADELNSIADSRLQIFPLEIDCDDSIKKLYENVDTLVGTDGLTVLINNAAICSVYEIEGQISRTYMRQQIETNSVSTAILTQNFIPLLKKASAKNGGEEYSTDRAAIVNISSGAASIGYIDDKQPGIYIAYRMSKSALNSFSKSCSVELAKYHILVTAMCPGWVKTDMGGENGWEEVDDATEKIMKSILKLGAAQHGAFINSSLEVYPN | not soluble |
| MAPRSYWKGYLKLSLVTCPVTLMPATSEAERVRFRTLNGRTGHPVVSRYLDAETGDVVDDDDQVKGYPRSETEHVILEEEELDAVALESARTIDIDCFVPSDEIAWIWYDRPHYLMPADPIGEEAFAVIREAMRATDRSGVARLVLGGRERAVLLMPRGEGIILWTLRYGDEVRPEEAYFGDLAAGKPDPKALTLVKRLIEERTRTWEPGMVEDPVQENLLELIRSKKPKKRSRKAGAKAPKGGDNVVSIMDALRKSIEGKG | not soluble |
| MAPRTYASVLTTPRGPAPLALYCPEAPECPKLEAISNLSFQQITQQAGTSNDQGFEFENTYVEHRINQEIESFVDTHHQEPLRKAAAQFRAVMKQEYPDSTCFITGSYPAGVDIFSSDIDFTVKVPTLEGANPFLKLMQLRKELSCYYTIFSKAYVQKGNIPVLQLMHAETKVSIDVTIDNDTSKRNTQLLAFYSQLDTRFPLLCKAMKAWAASCGVEGASRGRLNSFSLCLMLIHYLQTVQVLLNIQEIFPELNGDIVVEDDNYMKRDLKIEILEKGAFDFNQNTSSLAVLFIGFMKYYSEFNFKWNWISIKHGNVLKKKWSKTRVPKNGMPKDCRFIVVADPLLEIPRNCAGTVRQQNYMERIQLEFREEYERILKRKTIFNLYQCNWSRKLRKEGMERDLQIMILQDELRKLRIANLPTEEEVPWGTVVDFTSPRTFSPTNQHPKVFWCSEQTTENQRRDNLWPELLRTNPYAIFENLI | soluble |
| MAQEKMDLDFEADTSEGATLRRSNSAPLIHVLSDLSQVFEPYPLRTGRTSTAIMSHHSLEEGLDMMNRETTNEREAQAGMQISQSWDESLSLSGSDFDKPEKLYSPKRIDFTPVSPAPSPTRGFGKQCLSPSLQMFVSSSGMPPSPVLNPRHFSRRSQSPVKCIRPSVLGPLKRKGEMEMESQPKRPFQGTTSMLSTNPAQLSDFSSCSDILDGSSISSGLSSDSLATGSAPAESPVACSNSCSPFILMDDLSPK | not soluble |
| MAQGLIEVERKFAPGPDTEERLQELGATLEHRVTFRDTYYDTSELSLMLSDHWLRQREGSGWELKCPGVTGVSGPHNEYVEVTSEAAIVAQLFELLGSGEQKPAGVAAVLGSLKLQEVASFITTRSSWKLALSGAHGQEPQLTIDLDSADFGYAVGEVEAMVHEKAEVPAALEKIITVSSMLGVPAQEEAPAKLMVYLQRFRPLDYQRLLEAASSGEATGDSAS | soluble |
| MAQGNPLTPEEIELLHAGDEENDNTDTLMVIRVPNDGSSATAISIPRDTYVHDENVGNLKINGVYRAYKNRKASELVNSGESDQKHIDELSKEAGRKALISSISDLTGVTVDHYAEVGLLGFVLLTNAVGGVDVCLNNDVYDEFSGADFKAGQQTLRDGQALAFVRQRHGLPRGDLDRIVRQQAFMASLVAKVLSSGTLTNPSKLSDLGEAVSRSVVIDKNWDVMSFANQLQNLAGGNVKFNTIPVTSIDGVGDYGESVVTVDKNQVHQFFDRLLNGNNGEETPTSDSEAPAENPHTSTTIDVLNATSTTGLASQVAGHLSAKHYTIGNIGNALEGMYHESQIVAADPNNEAVKAIAAELGGLPITQRNDLEHHHHHH | soluble |
| MAQQAPDREKALELAMAQIDKNFGKGSVMRLGEEVRQPISVIPTGSISLDVALGIGGLPRGRVIEIYGPESSGKTTVALHAVANAQAAGGIAAFIDAEHALDPEYAKKLGVDTDSLLVSQPDTGEQALEIADMLVRSGALDIIVIDSVAALVPRAEIEGEMGDSHVGLQARLMSQALRKMTGALNNSGTTAIFINALREKIGVMFGSPETTTGGKALKFYASVRLDVRRIETLKDGTDAVGNRTRVKVVKNKVSPPFKQAEFDILYGQGISREGSLIDMGVEHGFIRKSGSWFTYEGEQLGQGKENARKFLLENTDVANEIEKKIKEKLGIGAVVTAEADDVLPAPVDF | soluble |
| MAQQLLMPKATAVWLVDNTALSFDQIAQFCKLHPLEVKAIADGESAQGIKGLDPIATGQLSRDEIARAEGNPNHKLKLSEPKVRVPDSKRKGPRYTPVSKRQDRPNAILWLVRNHPELKDAQISRLVGTTKATIEQIRERTHWNSANLTPMDPVTLGLCSQIDLDLEVERASKGRPLPSAAETGATLESAQETEKLDYGQDREEEKEIDADAVFAKLKSLKSDRKDDEEDDY | not soluble |
| MAQSKESPDEAKQDEIIFNIGDTINDYEIVSKIDEGGFGQVFKVTKDHKTFYAMKLESNFQVGGSAIKLEINVLSQLPKNTVFPELICGGKRPRYHFLVLELLGDNLKALKAQSPNPSVFSDGTWSRIGIQCLYAMKMMHDSGFVHRDIKPSNFAIGYSTASESRSRRVLLFDFGLARKFVKKEKNLAPIVTKKESKISKSKTLPSKGPSTKSKDLKPGRSKPILNRKAEQMKIKKNFNMLIPPKSIDQSQRTAEEKVDDEEFTFRRARPHTDFRGTFQYASPNAHLQLELGRHDDIWSLMYMVAEFFVELPWTSNEEIALEELKNQSSILRLFSDGKNIVSSWIHDRIFSDKNPSRLTPEMRGQLDEIDKNLKSCNYYSSPKYDIVYQFFKDSMTKAKVTWTTPYDWETIGKSSEDFSKKSNGKRAVWENPGAFFKKGRWDALPLPLQSPHISIRKSSSKHPKPSAKGSKKAVQARIQNFSKEDSVEADEAPTPMLKSTKKDGMGGQKGGLKGSIE | not soluble |
| MARAVHRSGLVALGIATALMASCAFAAKDVVVAVGSNFTTLDPYDANDTLSQAVAKSFYQGLFGLDKEMKLKNVLAESYTVSDDGITYTVKLREGIKFQDGTDFNAAAVKANLDRASDPANHLKRYNLYKNIAKTEAIDPTTVKITLKQPFSAFINILAHPATAMISPAALEKYGKEIGFYPVGTGPYELDTWNQTDFVKVKKFAGYWQPGLPKLDSITWRPVADNNTRAAMLQTGEAQFAFPIPYEQATLLEKNKNIELMASPSIMQRYISMNVTQKPFDNPKVREALNYAINRPALVKVAFAGYATPATGVVPPSIAYAQSYKPWPYDPVKARELLKEAGYPNGFSTTLWSSHNHSTAQKVLQFTQQQLAQVGIKAQVTAMDAGQRAAEVEGKGQKESGVRMFYTGWSASTGEADWALSPLFASQNWPPTLFNTAFYSNKQVDDFLAQALKTNDPAEKTRLYKAAQDIIWQESPWIPLVVEKLVSAHSKNLTGFWIMPDTGFSFEDADLQ | soluble |
| MAREFKRSDRVAQEIQKEIAVILQREVKDPRIGMVTVSDVEVSSDLSYAKIFVTFLFDHDEMAIEQGMKGLEKASPYIRSLLGKAMRLRIVPEIRFIYDQSLVEGMRMSNLVTNVVREDEKKHVEESNLEHHHHHH | soluble |
| MAREGCLALNVECRGRRVKFEARMETLPNGRQILVDRVVFPDSVAVLPLVEKDGEWHVVLVRQFRPSIGKWTLEAPAGTLKEGETPEAAAARELEEEAGLKAKALVRVGGGHVSPGYSTEYIHLFLAYSLEKGEMSPEEHEVIEGVVEMRLSEALESIESGVIEDLKTIALVMAAASRVHQLEAGGGV | soluble |
| MARFSGKSVIITGSSNGIGRSAAVIFAKEGAQVTITGRNEDRLEETKQQILKAGVPAEKINAVVADVTEASGQDDIINTTLAKFGKIDILVNNAGANLADGTANTDQPVELYQKTFKLNFQAVIEMTQKTKEHLIKTKGEIVNVSSIVAGPQAHSGYPYYACAKAALDQYTRCTAIDLIQHGVRVNSVSPGAVATGFMGAMGLPETASDKLYSFIGSRKECIPVGHCGKPEEIANIIVFLADRNLSSYIIGQSIVADGGSTLVMGMQTHDLMSVLSQ | soluble |
| MARFVVLVIDSFGVGAMKDVTLVRPQDAGANTCGHILSQLPHLQLPTLETLGLINALGYAPGDMQPSDSATWGVAELQHEGGDTFMGHQEILGTRPLPPLRMPFRDVIDRVEQALVSAGWQVERRGDDLQFLWVNQAVAIGDNLEADLGQVYNITANLSVISFDDAIKIGRIVREQVQVGRVITFGGLLTDSQRILDAAESKEGRFIGINAPRSGAYDNGFQVVHMGYGVDEKVQVPQKLYEAGVPTVLVGKVADIVNNPYGVSWQNLVDSQRIMDITLNEFNTHPTAFICTNIQETDLAGHAEDVARYAERLQVVDRNLARLVEAMQPDDCLVVMADHGNDPTIGHSHHTREVVPVLVYQQGMIATQLGVRTTLSDVGATVCEFFRAPPPQNGRSFLSSLRFAGDTLGKWYYLNSNGAMVTGSQTIDGKVYNFASSGEWI | not soluble |
| MARHFGMALAPWDVMGGGRFQSKKAMEERRKNGECIRSFVGASEQTDAEIKISEALAKVAEEHGTESVTAIAIAYVRSKAKNVFPSVEGGKIEDLKENIKALSIDLTPDNIKYLENVVPFDIGFPNTFIVLNSLTQKYGTNNV | soluble |
| MARHHHHHHMPEGKIIKALSGFYYVLDESEDSDKVIQCRGRGIFRKNKITPLVGDYVVYQAENDKEGYLMEIKERTNELIRPPICNVDQAVLVFSAVQPSFSTALLDRFLVLVEANDIQPIICITKMDLIEDQDTEDTIQAYAEDYRNIGYDVYLTSSKDQDSLADIIPHFQDKTTVFAGQSGVGKSSLLNAISPELGLRTNEISEHLGRGKHTTRHVELIHTSGGLVADTPGFSSLEFTDIEEEELGYTFPDIREKSSSCKFRGCLHLKEPKCAVKQAVEDGELKQYRYDHYVEFMTEIKDRKPRY | soluble |
| MARILAIDDEDGILYIIKSALEKEGHEVTAVSNPLTIPKEKFCHYDLILLDVMMPEIDGFTLCKEIRDFVDSPIVFLTAKTMEKDLITGLSLGGDDYITKPFGIGELRARVSAHVRREHREKQNAFFLSGLTFHLSCKEIWYDDTSIAFTKSEYGICEYLALNHGQVFSREKIYENVFGYEGESDNQVIVEHIKNIRHKLSKYGMNPIETVWGIGYKWRK | not soluble |
| MARNAEKAMTALARWRRMKEEEERGPIARRPHDVKDCRNLSDAERFRREIVRDASKKITAIQNPGLGEFKLRDLNDEVNRLIKLKHAWEQRIRELGGTDYRKYAQKELDAIGRETGNSRGYKYFGAAKDLPGVRELFEKSTEGEEQRRHRADLLRNIDAHYFGYLDDEDGRLIPLEKLIEEKNIERINKEFAEKQAQKQQTASDAAPENIYKVEEDDDDDLETQESTVIGEDGRPMTIRHVLLPTQQDIEEMLLEQKKQELMAKYLD | not soluble |
| MARPLVPSSQKALLLELKGLQEEPVEGFRVTLVDEGDLYNWEVAIFGPPNTYYEGGYFKARLKFPIDYPYSPPAFRFLTKMWHPNIYETGDVCISILHPPVDDPQSGELPSERWNPTQNVRTILLSVISLLNEPNTFSPANVDASVMYRKWKESKGKDREYTDIIRKQVLGTKVDAERDGVKVPTTLAEYCVKTKAPAPDEGSDLFYDDYYEDGEVEEEADSCFGDDEDDSGTEESLEHHHHHH | not soluble |
| MARQTMNPSIRYLIGVDGGGTGTRIRLHASDGTPLAMAEGGASALSQGIAKSWQAVLSTLEAAFQQAGLPAAPASACAIGLGLSGVHNRQWAGEFESQAPGFARLSLATDGYTTLLGAHGGQPGIIVALGTGSIGEALYPDGSHREAGGWGYPSGDEASGAWLGQRAAQLTQMALDGRHSHSPLTRAVLDFVGGDWQAMMAWNGRATPAQFARLAPLVLSAARVDPEADALLRQAGEDAWAIARALDPQDELPVALCGGLGQALRDWLPPGFRQRLVAPQGDSAQGALLLLQRPSTRLEHHHHHH | soluble |
